Source: patent US20250027068
Positions count from the first letter of the chain named.

B1: PRT-513 (protein)
chain: MITSVWTKGVTPPAKFTQGEDVFHAPYVANQGWYDITKTFNGKDDLLCGAATAGNMLHWWFDQNKEEIEAYLKKHPEKQKIMFGDQELLDVRKVINTKDSQTNSALFNYFKDKAFPNLSARRLGVMPDLVLDMFINGYYLNVYKTQTTDVNRTYQTKDRRGGIFDAVFTRGDQSKLLTERHDLKNKTLKEISDLIKQELTEGKALGLSHTYANVRINHVINLWGADFDSNGNLEAIYVTDSDSNASIGMKKYFVGVNSAGKVAISAKEIKEDNIGAQVLGLFTLSTGQDIWNQTNLEHHHHHH
B2: PRT-508 (protein)
chain: B1 chain with A14T, K15D, T17I, Q18K, V28K, N30G
B3: PRT-503 (protein)
chain: MITSVWTKGVTPPTDFIKGEDVFHAPYKAGQGWYDITKAFDGGDDLLCGAATAGNMLHWWFDQNKEYIEAYLKKHPEKQKIMFGDQELLDVRKAINTKGSQKNSELFNYFRDKAFPNLSARRLGVMPDLVLDMFINGYYLNVTKTQTTDVNRQEQEKDKRGGIFDAVFGRGDQTKLLTSRHDLKNKGLNEISQLIKQELTEGKALGLSHTYANVRINHVINLWGADFDADGNLEAIYVTDSDSNASIGMKKYFVGVNSAGKVAISAKEIKEDNIGAQVLGLFTLSTGQKIWNKTNLEHHHHHH
B4: PRT-496 (protein)
chain: MVTSVWTKGVTPPTDFIKGEDVFHAPYKAGQGWYDITKTFNGKDDLLCGAATAGNMLHWWFDQNKEYIEAYLKKHPEKQKIMFGDQELLDVRKAINTKGSQKNSELFNYFRDKAFPNLSARRLGVMPDLVLDMFINGYYLNVTKTQTTDVNRTYQEKDKRGGIFDAVFTRGDQSKLLTSRHDLKNKGLKEISDLIKQELTEGKALGLSHTYANVRINHVINLWGADFDSDGNLKAIYVTDSDSNASIGMKKYFVGVNSAGKVAISAKEIKEDNIGAQVLGLFTLSTGQDIWNQTNLEHHHHHH
B5: PRT-677 (protein)
chain: MQITSVWTKGVIPPTMDQFRYNNYDVFHAPYLPHQGWYDITKTFDGGDNLLCGAATAGNMLHWWFDQNKEYIENYLKKYPEKQKIIFNNQELFDLRKAINTKDSQTNSELFNYFRDKAFGNLSARQKGVMPDLVLDMFINGYYLNLFKTQSTDVNRPNDTRDKRGGFFDHVFGRGDQTKLLTARHDLYNGGLSDISQLIKQELQSGKALAISHTYGNVSSSHVINLWGADFDAEGNLEAIYVTDSDDRSSIGMKKYYVGINASGKVAISAKKIEGENVGAQVLGLFTLSSGKEIWKKLSLEHHHHHH
B6: PRT-682 (protein)
chain: MQITSVWTKGVTPLTPEQFRNNNEDVIHAPYLANQGWYDITKTFNGKDNLLCGAATAGNMLHWWFDQNKTEIEAYLKKHPEKQKIIFNNQELFDLKKAIDTKDSQTNSQLFNYFRDKAFPNLSARQLGVMPDLVLDMFINGYYLNVFKTQSTDVNRPYQDKDKRGGIFDAVFTRGDQTTLLTSRHDLKNKGLNEISDIIKQELTEGKALALSHTYANVSISHVINLWGADFNAEGNLEAIYVTDSDANASIGMKKYFVGVNAHGKVAISAKKIEGENIGAQVLGLFTLSSGKDIWQKLSLEHHHHHH
B7: PRT-455 (protein)
chain: MITSVWTKGVTPPTDFIKGEDVFHAPYKAGQGWYDITKAFDGGDDLLCGAATAGNMLHWWFDQNKDQIEAYLKEHPEKQKINFNGEQMFDVKEAIDTKDDQTNSELFNYFKEKAFPYLSTKHLGVFPDHVLDMFINGYRLSLTNHGPTPVKRQEKDPRGGIFDAVFGRGDQTKLLTSRHDLKNKTLNEISQLIKQELTEGKALALSHTYANVRINHVINLWGADFDAEGNLEAIYVTDSDSNASIGMKKYFVGVNSAGKVAISAKEIEDDNIGAQVLGLFTLSTGQKIWNKTNLEHHHHHH
B8: PRT-482 (protein)
chain: MVTSVWTKGVTPPTDFIKGEDVFHAPYKAGQGWYDITKTFNGKDNLLCGAATAGNMLHWWFDQNKDQIEAYLKEHPEKQKIIFNNQELFDLKAAIDTKDDQTNSKLFEYFKEKAFPYLSTKHLGVFPDHVLDMFINGYRLSLTNHGPTPVKEGSKDKRGGIFDAVFTRGVQSKLLTSRHDFKEKTLKEISDLIKQELTEGKALALSHTYANVRINHVINLWGADFDSNGNLEAIYVTDSDTNASIGMKKYFVGVNSAGKVAISAKEIEDDNIGAQVLGLFTLSTGQDIWNQTNLEHHHHHH
B9: PRT-517 (protein)
chain: MITSVWTKGVTPPTDFIKGEDVFHAPYKAGQGWYDITKAFDGGDDLLCGAATAGNMLHWWFDQNKEEIEAYLKKHPEKQKIMFGDQELLDVRKVINTKDSQTNSALFNYFKDKAFPNLSARRLGVMPDLVLDMFINGYYLNVYKTQTTDVNRQEQTKDRRGGIFDAVFGRGDQTKLLTERHDLKNKTLKEISDLIKQELTEGKALGLSHTYANVRINHVINLWGADFDSNGNLEAIYVTDSDSNASIGMKKYFVGVNSAGKVAISAKEIKEDNIGAQVLGLFTLSTGQKIWNKTNLEHHHHHH
B10: PRT-511 (protein)
chain: MITSVWTKGVTPPAKFRKIVDGNIAYYHAPYVANQGWYDITKTFNGKDDLLCGAATAGNMLHWWFDQNKEEIEAYLKKHPEKQKIMFGDQELLDVRKVINTKDSQTNSALFNYFKDKAFPNLSARRLGVMPDLVLDMFINGYYLNVYKTQTTDVNRTYQTKDRRGGIFDAVFTRGDQSKLLTERHDLKNKTLKEISDLIKQELTEGKALGLSHTYANVRINHVINLWGADFDSNGNLEAIYVTDSDSNASIGMKKYFVGVNSAGKVAISAKEIKEDNIGAQVLGLFTLSTGQDIWNQTNLEHHHHHH
B11: PRT-501 (protein)
chain: B4 chain with T14A, I17T, K18Q, K28V, G30N
B12: PRT-498 (protein)
chain: MVTSVWTKGVTPPTDFRKIVDGNIAYYHAPYKAGQGWYDITKAFDGGDDLLCGAATAGNMLHWWFDQNKEYIEAYLKKHPEKQKIMFGDQELLDVRKAINTKGSQKNSELFNYFRDKAFPNLSARRLGVMPDLVLDMFINGYYLNVTKTQTTDVNRTYQEKDKRGGIFDAVFTRGDQSKLLTSRHDLKNKGLKEISDLIKQELTEGKALGLSHTYANVRINHVINLWGADFDSDGNLKAIYVTDSDSNASIGMKKYFVGVNSAGKVAISAKEIKEDNIGAQVLGLFTLSTGQDIWNQTNLEHHHHHH
B13: PRT-688 (protein)
chain: MQITSVWTKGVTPLTMDDFTINNEDVIHAPYVANQGWYDITKTFNGKDNLLCGAATAGNMLHWWFDQNKEEIERYLKKHPEKQKIIFNNQELFDLKEAINTKDSQTDSKLFNYFRDKAFPNLSARQLGVMPDLVLDMFINGYYLNVFKTQSTDVNRPYDTKDKRGGIFDHVFTRGDQSTLLTARHDLKNKTLKEISDIIKQELTEGKALALSHTYANVSISHVINLWGADFNAEGNLEAIYVTDSDANASIGMKKYYVGVNSHGKVAISAKKIEGENIGAQVLGLFTLSSGKDIWQKLSLEHHHHHH
B14: PRT-667 (protein)
chain: MQITSVWTKGVTPLTPEQFRYNNEDVFHAPYLAHQGWYDITKAFNGKDNLLCGAATAGNMLHWWFDQNKEEIEAYLKKHPEKQKIIFNNQELFDLRKAINTKDSQTNSQLFNYFRDKAFPNLSARQLGVMPDLVLDMFINGYYLNLNKTQSTDVNRPYQDKDKRGGIFDHVFTRGDQTTLLTARHDLKNKTLNDISQLIKQELQEGKALALSHTYANVSISHVINLWGADFNAEGNLEAIYVTDSDSDASIGMKKYFVGKNASGHVAISAKKIEGENIGAQVLGLFTLSSGKEIWQKLSLEHHHHHH
B15: PRT-485 (protein)
chain: B8 chain with T14A, D15N, I17T, K18Q, G30N, F181L, E183N

Each protein was assayed against pooled human IgG (human IgG1,2,3 and 4).
Protein B1 has an Enzyme Activity Endpoint Assay: Fab′2 of 397 ng/µL, an Enzyme Activity Endpoint Assay: Fc of 367 ng/µL and an Enzyme Activity Endpoint Assay: IgG of 374 ng/µL. For the same protein, the Enzyme Activity Endpoint Assay: scIgG was 0 ng/µL. B2 gave an Enzyme Activity Endpoint Assay: Fab′2 of 0 ng/µL, an Enzyme Activity Endpoint Assay: Fc of 0 ng/µL and an Enzyme Activity Endpoint Assay: IgG of 0 ng/µL. It also gave an Enzyme Activity Endpoint Assay: scIgG of 0 ng/µL. Work on B3 yielded an Enzyme Activity Endpoint Assay: Fab′2 of 0 ng/µL, an Enzyme Activity Endpoint Assay: Fc of 0 ng/µL and an Enzyme Activity Endpoint Assay: IgG of 0 ng/µL. It also gave an Enzyme Activity Endpoint Assay: scIgG of 0 ng/µL. B4 gave an Enzyme Activity Endpoint Assay: Fab′2 of 190 ng/µL, an Enzyme Activity Endpoint Assay: Fc of 192 ng/µL and an Enzyme Activity Endpoint Assay: IgG of 0 ng/µL. For the same protein, the Enzyme Activity Endpoint Assay: scIgG was 0 ng/µL. Protein B5 has an Enzyme Activity Endpoint Assay: Fab′2 of 0 ng/µL, an Enzyme Activity Endpoint Assay: Fc of 0 ng/µL and an Enzyme Activity Endpoint Assay: IgG of 0 ng/µL. The Enzyme Activity Endpoint Assay: scIgG was 0 ng/µL. In the case of B6, the Enzyme Activity Endpoint Assay: Fab′2 is reported as 0 ng/µL, the Enzyme Activity Endpoint Assay: Fc is reported as 0 ng/µL and the Enzyme Activity Endpoint Assay: IgG is reported as 0 ng/µL. The Enzyme Activity Endpoint Assay: scIgG was 0 ng/µL. Protein B7 has an Enzyme Activity Endpoint Assay: Fab′2 of 872 ng/µL, an Enzyme Activity Endpoint Assay: Fc of 416 ng/µL and an Enzyme Activity Endpoint Assay: IgG of 0 ng/µL. For the same protein, the Enzyme Activity Endpoint Assay: scIgG was 333 ng/µL. Protein B8 has an Enzyme Activity Endpoint Assay: Fab′2 of 261 ng/µL, an Enzyme Activity Endpoint Assay: Fc of 322 ng/µL and an Enzyme Activity Endpoint Assay: IgG of 146 ng/µL. For the same protein, the Enzyme Activity Endpoint Assay: scIgG was 738 ng/µL. For B9, the Enzyme Activity Endpoint Assay (purified): Fab′2 was 0 ng/µL, the Enzyme Activity Endpoint Assay (purified): Fc was 0 ng/µL and the Enzyme Activity Endpoint Assay (purified): scIgG was 22 ng/µL. B10 gave an Enzyme Activity Endpoint Assay (purified): Fab′2 of 935 ng/µL, an Enzyme Activity Endpoint Assay (purified): Fc of 312 ng/µL and an Enzyme Activity Endpoint Assay (purified): IgG of 62 ng/µL. The Enzyme Activity Endpoint Assay (purified): scIgG was 0 ng/µL. For B11, the Enzyme Activity Endpoint Assay (purified): Fab′2 was 0 ng/µL, the Enzyme Activity Endpoint Assay (purified): Fc was 0 ng/µL and the Enzyme Activity Endpoint Assay (purified): IgG was 1950 ng/µL. The Enzyme Activity Endpoint Assay (purified): scIgG was 0 ng/µL. With B12 the Enzyme Activity Endpoint Assay (purified): Fab′2 was 488 ng/µL, the Enzyme Activity Endpoint Assay (purified): Fc was 318 ng/µL and the Enzyme Activity Endpoint Assay (purified): IgG was 325 ng/µL. For the same protein, the Enzyme Activity Endpoint Assay (purified): scIgG was 124 ng/µL. With B13 the Enzyme Activity Endpoint Assay (purified): Fab′2 was 0 ng/µL, the Enzyme Activity Endpoint Assay (purified): Fc was 0 ng/µL and the Enzyme Activity Endpoint Assay (purified): IgG was 1950 ng/µL. For the same protein, the Enzyme Activity Endpoint Assay (purified): scIgG was 0 ng/µL. Protein B14 has an Enzyme Activity Endpoint Assay (purified): Fab′2 of 61 ng/µL, an Enzyme Activity Endpoint Assay (purified): Fc of 197 ng/µL and an Enzyme Activity Endpoint Assay (purified): IgG of 279 ng/µL. The Enzyme Activity Endpoint Assay (purified): scIgG was 896 ng/µL. With B15 the Enzyme Activity Endpoint Assay (purified): Fab′2 was 0 ng/µL, the Enzyme Activity Endpoint Assay (purified): Fc was 0 ng/µL and the Enzyme Activity Endpoint Assay (purified): IgG was 1400 ng/µL. It also gave an Enzyme Activity Endpoint Assay (purified): scIgG of 0 ng/µL.
